{"source": "patent US20250295776A1", "about": "“CLEAVAGE RESISTANT CD16 CONSTRUCTS AND USES THEREOF” (Celularity Inc., priority 2022, published 2025)", "assay_in_all_cases": "cell-based or functional assay", "key": {"[1]": {"target": "CD16VS (construct #5: 176 V; SCRAMBLED original sequence), without Myc tag (human) (UniProt P08637)"}, "[2]": {"target": "high affinity (158 Val) and proteinase cleavage resistant (197Pro) CD16 variant (CD16VP) (human) (UniProt P08637)"}, "[3]": {"target": "endogenous CD16 on non-transduced (NT) placental NK cells (human) (UniProt P08637)"}, "[4]": {"target": "HER2 (human epidermal growth factor 2) on HER2 overexpressing tumor cell lines (human) (UniProt P04626)"}, "[5]": {"target": "Construct #10 (176 V (also referred to as 158 V); 197 Serine (S)), without Myc tag (human) (UniProt P08637)"}, "[6]": {"target": "Construct #1 (176 V; 197 Glycine (G)), without Myc tag (human) (UniProt P08637)"}}}
{"substance": "Avelumab (anti-PD-L1 antibody)", "values": [{"measurement": "cytolysis of 5637, T-24, RT-112 and NCI-H1975 tumor cell lines by PT-CD16VS cells with Avelumab, 24 hours, 5:1 E:T ratio", "setting": "[1]", "value": 100, "unit": "%"}, {"measurement": "cytolysis of MDA-MB-231 by PT-CD16VS cells with Avelumab, 12 hours, 5:1 E:T ratio", "setting": "[1]", "value": 70, "unit": "%"}]}
{"substance": "Daratumumab (anti-CD38) (antibody)", "values": [{"measurement": "cytotoxicity (ADCC) of PNK-CD16VP cells against Daratumumab opsonized Daudi cells, E:T 10:1 (n=5)", "setting": "[2]", "value": 47, "unit": "%"}, {"measurement": "cytotoxicity (ADCC) of PNK-CD16VP cells against Daratumumab opsonized HS-Sultan cells, E:T 10:1 (n=3)", "setting": "[2]", "value": 30, "unit": "%"}, {"measurement": "cytotoxicity (ADCC) of PNK-CD16VP cells against Daratumumab opsonized Sudh16 cells, E:T 10:1 (n=3)", "setting": "[2]", "value": 30, "unit": "%"}, {"measurement": "cytotoxicity (ADCC) of NT cells against Daratumumab opsonized Daudi cells, E:T 10:1 (n=5)", "setting": "[3]", "value": 25, "unit": "%"}, {"measurement": "cytotoxicity (ADCC) of NT cells against Daratumumab opsonized HS-Sultan cells, E:T 10:1 (n=3)", "setting": "[3]", "value": 21, "unit": "%"}, {"measurement": "cytotoxicity (ADCC) of NT cells against Daratumumab opsonized Sudh16 cells, E:T 10:1 (n=3)", "setting": "[3]", "value": 16, "unit": "%"}]}
{"substance": "Ultra-LEAF purified human IgG1 isotype control recombinant antibody", "values": [{"measurement": "lysis of NCI-N87 cells by CYNK-101 cells (n=7 donors) in the presence of IgG control, 24 h, E:T 0.6:1, xCELLigence", "setting": "[4]", "value": 7.5, "unit": "%"}, {"measurement": "lysis of OE19 cells by CYNK-101 cells (n=7 donors) in the presence of IgG control, 24 h, E:T 0.6:1, xCELLigence", "setting": "[4]", "value": 14.7, "unit": "%"}]}
{"substance": "metalloprotease ADAM17 (from UniProt P78536 215-824) (enzyme)", "values": [{"measurement": "CD16 shedding percentage post 2 h PMAi stimulation, transduced CYNK cells (n=6 donors)", "setting": "[1]", "value": 0.6, "unit": "%"}, {"measurement": "CD16 shedding percentage post 2 h PMAi stimulation, transduced CYNK cells (n=6 donors)", "setting": "[5]", "value": 1.8, "unit": "%"}, {"measurement": "CD16 shedding percentage post 2 h PMAi stimulation, transduced CYNK cells (n=6 donors)", "setting": "[6]", "value": 9.4, "unit": "%"}, {"measurement": "CD16 shedding after PMA/ionomycin activation, flow cytometry, PNK-CD16VP cells", "setting": "[2]", "value": "< 11", "unit": "%"}, {"measurement": "CD16 shedding percentage post 2 h PMAi stimulation, transduced CYNK cells (n=6 donors)", "setting": "[2]", "value": 4.3, "unit": "%"}, {"measurement": "CD16 shedding after 2 h PMAi, control sample", "setting": "[3]", "value": 60, "unit": "%"}, {"measurement": "CD16 shedding percentage post 2 h PMAi stimulation, NT CYNK cells", "setting": "[3]", "value": 74.7, "unit": "%"}]}
